Assay results taken from the supplement of paper PMC9170038.

Tested on: MS2 coat protein
Test: apparent KD of MS2 coat protein; designed switch direction (-1 OFF switch, 1 ON switch): -1; higher = weaker reporter binding
Method in brief: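 The buffer was Tris-HCl pH 7.5 with KCl, MgCl2, BSA, DTT, tRNA and Tween-20. In it, SNAP-549-labelled MS2 coat protein was titrated in doubling steps from 0.7 or 1.5 nM to 3 µM over chip-bound RNA switches transcribed by stalled E. coli RNA polymerase on Illumina chips. Apparent KD is the per-design median over clusters of curve fits to normalised fluorescence.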

[1] = input ligand: microRNA oligo, concentration not stated
[2] = Eterna round: R95, input ligand: FMN 200 uM
[3] = Eterna round: R95, input ligand: microRNA oligo, concentration not stated
[4] = Eterna round: R95, input ligand: none

| Sequence | apparent KD of MS2 coat protein (input ligand: FMN 200 uM) [nM] | apparent KD of MS2 coat protein [1] [nM] | apparent KD of MS2 coat protein (input ligand: none) [nM] | apparent KD of MS2 coat protein [2] [nM] | apparent KD of MS2 coat protein [3] [nM] | apparent KD of MS2 coat protein [4] [nM] |
| --- | --- | --- | --- | --- | --- | --- |
| AAAAAAAAGUGAGGAUAUGGAAAUUUGGUGAUAACAUGAGGAUCACCCAUGUGAAAACAAUAAAAUUAGAAGGUAUAAAAAAAA [AK ExNG2-1] (Eterna round: R96, puzzle: Exclusion NG 2) | 122 | 73.1 | 98.8 |  |  |  |
| AAAAAACAUGAGGAUCACCCAUGUUAGGAUAUGCUAUGGAAAAUAAAAAAUAAACAUAGCAGAAGGAACAAAAA [Mat - Exclusion 1 - Eli mod - D30] (Eterna round: R96, puzzle: Exclusion 1) |  | 33.2 |  |  |  |  |
| AAAAAGCGAGGAUAUGCAUAAGGACCCGGGCGGGAAGUCGGACAUGAGGAUCACCCAUGUAGAAGGCGCAAAAA [Exclss2-V] (puzzle: Exclusion 2) |  |  |  | 25.5 | 13.2 | 14.4 |
| AAAAAGGUAGGAUAUACGAAAAAAAAGGGUAAAAUAAAUAAACAUGAGGAUCACCCAUGUAGAAGGACCAAAAA [Mat - Exclusion 2 - Tesla mod - D38] (Eterna round: R96, puzzle: Exclusion 2) |  | 22.8 |  |  |  |  |
| AAAAAGUGAGGAUAUACAUGAGGAUCACCCAUGUAAUAAAAAAAAAGGGUGGAAGAAAGUAGAAGGCACCAAAA [Ex 3 May 48] (Eterna round: R96, puzzle: Exclusion 3) | 323 | 64.5 | 65.3 |  |  |  |
| AAAACGGACCGAGGAUAUACAUGAUAUCUUUACGUAGAAGGCGGACCGGCGACUUGAGGAUCACCCAAGUGUCCUCUUUUGCGG [Mutated MS2 EX1.26] (Eterna round: R96, puzzle: Exclusion NG 1) | 184 | 51.1 | 46.7 |  |  |  |
| AAAACUCGAGUUAGGAUAUUGAGUGCUAAAAUCACCAAGAAGGAACAUGAGGAUCACCCAUGUAACGAAGGUGA [BmEX4 A.10] (Eterna round: R97, puzzle: Brourd's mod of Exclusion 4) | 19.8 |  | 16 |  |  |  |
| AAAAGGUCAGGAUAUGCGAGCGGCAGGGAGGCAGGUCGGUGGCAGAAGGGACAUGAGGAUCACCCAUGUUAAAA [Excls4-II] (puzzle: Exclusion 4) |  |  |  |  | 29.2 |  |
| AAAAUAAGUGUGAGGAUAUGCUGGUCCUUGGAUCAGCAGAAGGCACAUGAGGAUCACCCAUGUAAUAUAUUUAU [Mat - Exclusion 4 - JL Mod - D62] (puzzle: Brourd's mod of Exclusion 4) |  |  |  |  | 77.3 |  |
| AAACAAGCAACGAGAUCCCACAUGAGGAUCACCCAUGUCAACUGAAGUUUUAAAUCUUCAGGCUCGUCUUAUAACAA [S_tov1_V1.1] (Eterna round: R97, puzzle: Sensor, turn-off variant 1) | 33.6 |  | 34.8 |  |  |  |
| AAACAGCAAGGAUAUACGGGCUGUGCUUUUCAUAUCAUACAACAUGAGGAUCACCCAUGUAGAAGGUGCAACAA [Ex2 #3] (Eterna round: R97, puzzle: Exclusion 2) | 146 |  | 44 |  |  |  |
| AAACAGGAAGGAUAUACAUUAUCGGAUCUUCUGGCAAUGCCACAUGAGGAUCACCCAUGUAGAAGGUCCAAAUU [Isenona] (puzzle: Exclusion 2) |  |  |  |  | 12.7 |  |
| AAACCUGCCCAUGACCGCAAGCUUUUUGCUUGUCUCACCACAUGAGGAUCACCCAUGUGACAUGGGCUCCUUAUAAA [Orvesovera] (puzzle: Sensor v3, turn-off variant 2) |  |  |  | 13.7 | 9.96 | 12 |
| AAACUCCGGGUGAGGAUAUCUAGCAUCAAGACGCGAGAGAAGGCACUUGAGGAUCACCCAAGUACGUGGCCUAA [Quare] (Eterna round: R97, puzzle: Brourd's mod of Exclusion 4) | 153 |  | 99.9 |  |  |  |
| AAACUGAGGCAAAGCUUUAGUCGUACAUGAGGAUCACCCAUGUAGGAUAUGGUAGGCAAAGCUUACCAGAAGGACAGAGUGAUC [Mat - Exclusion NG 3 - Mod of JL - D57] (Eterna round: R96, puzzle: Exclusion NG 3) | 251 | 487 | 344 |  |  |  |
| AAAGAACAUGAGGAUCACCCAUGUUAGGAUAUAGUAGCAGUGUAUCUAAAGACAGCAGCUAGAAGGAGCAUGAG [Eternabot (Original) Solution 46] (Eterna round: R97, puzzle: Exclusion 1) | 77.4 |  | 74.3 |  |  |  |

| Sequence | apparent KD of MS2 coat protein (input ligand: FMN 200 uM) [nM] | apparent KD of MS2 coat protein [1] [nM] | apparent KD of MS2 coat protein (input ligand: none) [nM] | apparent KD of MS2 coat protein [2] [nM] | apparent KD of MS2 coat protein [3] [nM] | apparent KD of MS2 coat protein [4] [nM] |
| --- | --- | --- | --- | --- | --- | --- |
| AAAGAAGAAGUCAGGAUAUAGUUAAAGAAGACCGACUAGAAGGGACAUGAGGAUCACCCAUGUGUCAGUGGGUA [Lasoaned] (puzzle: Brourd's mod of Exclusion 4) |  |  |  | 279 | 77.6 | 133 |
| AAAGCAAAGACAGGAUAUCGACCCAGUGAUUUUCGUGCCGGAAACAUGAGGAUCACCCAUGUGUACGAGAAGGGUCAAAACAAC [Uslebeteat] (Eterna round: R96, puzzle: Exclusion NG 2) | 61.9 | 17.1 | 22.3 |  |  |  |
| AAAGCGCGGUGAUAAUCUGUAACAUGAGGAUCACCCAUGUAGCAGGAUAUGGGCACAGUGGAAACUCAGAAGGGCUAUAAGCGC [Eternabot solution 21] (Eterna round: R96, puzzle: Exclusion NG 3) | 171 | 369 | 288 |  |  |  |
| AAAUACAAGCAAAGAUCCUACAUGAGGAUCACCCAUGUGCUCGUCUUAUAAAGUACUAUCACGAAAGUGAUAGUACA [Sensor 3, v1 - 15] (puzzle: Sensor v3, turn-off variant 1) |  |  |  | 286 | 48.2 | 1110 |
| AAAUACAAGCAAAGAUUCUACAUGAGGAUCACCCAUGUGCUCGUCUUAUAAAGUACUAUCACGAAAGUGAUAGUACA [Sensor 3, v1 - 33] (puzzle: Sensor v3, turn-off variant 1) |  |  |  | 21.3 | 161 | 23.2 |
| AAAUAGCAAGUUUGAUCCUACAUGAGGAUCACCCAUGUGUUCGUCUUAUUUGAAGACAACACAAAAGUGUUGUCUUA [Omei Mir OFFv1 B1] (Eterna round: R97, puzzle: Sensor, turn-off variant 1) | 1100 |  | 1300 |  |  |  |
| AAAUAGCGAGGAUAUACUGGAAUAGAAAAUAUUCGCAUGGCACAUGAGGAUCACCCAUGUAGAAGGCGCAGUAA (Eterna round: R97, puzzle: Exclusion 2) | 85.5 |  | 25.5 |  |  |  |
| AAAUAGCUAGAGGAUAUUGGAUAGGAUUUAGUGCGAGAAGGCUAGACAUGAGGAUCACCCAUGUUGUGUUGGGA [EX6 #14] (Eterna round: R97, puzzle: Exclusion 6) | 82.3 |  | 50.3 |  |  |  |
| AAAUCGGUAGAGGAUAUUGUACAGGAAACGGUGCGAGAAGGUUGCACAUGAGGAUCACCCAUGUUUAAUUGCGA [EX6 #49] (Eterna round: R97, puzzle: Exclusion 6) | 43.1 |  | 28.5 |  |  |  |
| AAAUUAGCAAGUAGGUCCGACAUGAGGAUCACCCAUGUUAUCUGAAAUAACGCAGCAUGAUUGUGCGCUCGUCUUAG [Sensor-V1 #7] (Eterna round: R97, puzzle: Sensor, turn-off variant 1) | 67.6 |  | 68.6 |  |  |  |
| AAAUUCAGAGGAUAUGCGCAUAGAUAAGACUUUUUUUCUUAACAUGAGGAUCACCCAUGUAGAAGGCUGUAAAA [Ex2 #60] (Eterna round: R97, puzzle: Exclusion 2) | 20.5 |  | 18.4 |  |  |  |
| AACAAACAUGAGGAUCACCCAUGUGAGGAUAUGCAACAAAACAAAACAAAACAAAACAGCAGAAGGCACACAAC [A-G Solution By Eric] (puzzle: Exclusion 1) |  |  |  | 17.2 | 19.2 | 14.6 |
| AACAAUACUUACAUAAUAAGGCUUUUCAGGUCGGGUACCACAUGAGGAUCACCCAUGUAGCAGCCUAGGGAAUGAUA [JR_Sensorv2_tov2_Sub1233] (Eterna round: R96, puzzle: Sensor v2, turn-off variant 2) | 49.2 | 36.4 | 46.1 |  |  |  |
| AACAGAUGAGGAUAUACACGAGGAGUGAUACCGUAUGCCAGACAUGAGGAUCACCCAUGUAGAAGGCAUAAUAG [Celeated] (Eterna round: R97, puzzle: Exclusion 2) | 18.9 |  | 12.4 |  |  |  |
| AACAGUACAGGAUAUACAUGAGGAUCACCCAUGUGAGAAUUAAGUGGAAAACCACAAAGUAGAAGGGUACUGGA [Mat - Exclusion 3 - JL mod - D3] (Eterna round: R96, puzzle: Exclusion 3) | 209 | 23.3 |  |  |  |  |
